Legend:
[1] = biological target: T1, EcoRV endonuclease (wild type) (UniProt P04390 2-245); assay: NMR
[2] = biological target: T1, EcoRV endonuclease (wild type); assay: X-ray crystallography
[3] = biological target: T1, EcoRV endonuclease (wild type); assay: NMR; remark: listed apart in the source
[4] = biological target: T1, EcoRV endonuclease (wild type); assay: NMR; remark: listed apart in the source
[5] = biological target: T1, EcoRV endonuclease (wild type); assay: X-ray crystallography; remark: listed apart in the source

T1 sequence (P04390 2-245): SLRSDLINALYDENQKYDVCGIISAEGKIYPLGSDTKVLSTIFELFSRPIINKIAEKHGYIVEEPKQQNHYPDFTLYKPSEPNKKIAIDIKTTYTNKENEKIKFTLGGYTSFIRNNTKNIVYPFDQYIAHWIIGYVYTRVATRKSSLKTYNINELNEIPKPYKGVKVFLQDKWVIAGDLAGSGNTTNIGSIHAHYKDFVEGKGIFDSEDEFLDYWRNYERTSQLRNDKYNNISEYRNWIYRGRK

B1: cleaved 24 bp duplex products (dsDNA)
DNA 1: CGCTGGAAAGAT
DNA 2: ATCTTTCCAGCG
DNA 3: ATCTTTGGAGGC
DNA 4: GCCTCCAAAGAT
binding result [1]: binds

B2: cognate 12 bp crystal duplex (dsDNA)
DNA 1: AAAGATATCTTT
DNA 2: AAAGATATCTTT
binding result [2]: binds

B3: nonspecific 16 bp inverted site CTATAG (dsDNA)
DNA 1: GCAAACTATAGTTTCG
DNA 2: CGAAACTATAGTTTGC
binding result [3]: binds

B4: cognate 16 bp GATATC (dsDNA)
DNA 1: GCAAAGATATCTTTCG
DNA 2: CGAAAGATATCTTTGC
binding result [4]: binds

B5: cleaved 12 bp crystal duplex (dsDNA)
DNA 1: AAAGAT
DNA 2: ATCTTT
binding result [5]: binds
